Results published in patent US20190262387A1.
No end group written: not given here.

Experiments:
[1] = biological target: collagen II (thin coating on polystyrene tissue culture plate); assay: normalized fluorescence of PEG-fluorescein conjugated peptide on collagen II coated plate after washing; reference is scrambled collagen II binding peptide (FIG. 2I)
[2] = biological target: collagen I (thin coating on polystyrene tissue culture plate); assay: normalized fluorescence of PEG-fluorescein conjugated peptide on collagen I coated plate after washing; reference is scrambled collagen I binding peptide (FIG. 2D)

Binder	normalized fluorescence intensity relative to scrambled peptide (times that of scrambled peptide) [1]	normalized fluorescence intensity relative to scrambled peptide (times that of scrambled peptide) [2]
WYRGRL (also: conjugated to PEG-fluorescein, site not given here) [collagen II binding peptide conjugated to PEG-fluorescein]	1.65	–
YSFYSDESLQ (also: conjugated to PEG-fluorescein, site not given here) [collagen I binding peptide conjugated to PEG-fluorescein]	–	1.55
